Earlier results, collected in article PMC8416071.

Molecular target: Spike protein (SARS-CoV) (UniProt P59594)
Test: ITC

Griffithsin (from UniProt P84801)
Kd: 24.9 nM
